Measurements as given in US20170096485A1 (Hoffmann-La Roche, published 2017).

What was measured:
human mesothelin [1] = target: T1, human mesothelin (human, UniProt Q13421 296-580); test: flow cytometry on MSLN-expressing AsPC-1 cells, 3.8 pM-300 nM, fit with GraphPad Prism6
T1 construct: In the assays the protein stood on cells: NCI-H322M, AsPC-1, NCI-H596 and BxPC-3 tumor cells (endogenous) and transiently transfected CHO cells; also called human MSLN; MSLN
Experimental: (§1) Briefly, Jurkat suspension cells were harvested, counted and checked for viability. Adherent AsPC-1 cells were harvested using Cell Dissociation Buffer (Gibco, #13151014), counted, checked for viability, and re-suspended at 0.9×10⁶ cells/ml in FACS buffer (100 μl PBS 0.1% BSA). […] Cells were re-incubated for further 30 min at 4° C. with the 1:100 pre-diluted AlexaFluor 647—F(ab′)₂ Fragment Goat Anti-Human IgG, Fey fragment specific secondary antibody (Jackson Immuno Research Lab, […] #109-096-008) and thereafter washed twice with cold PBS 0.1% BSA.
(§2) The stained cells were re-suspended in 100 μl 2% paraformaldehyde-containing FACS Buffer and incubated for 30 min at room temperature to fix the staining. Finally cells were centrifuged for 4 min at 350×g and 4° C., the supernatants were discarded and the cell pellets re-suspended in 200 μl FACS Buffer. Staining was analyzed by FACS using a FACS Canto II (Software FACS Diva). Binding curves and EC50 values were obtained using GraphPadPrism6 (FIG. 8A, binding to Jurkat cells, FIG. 8B binding to AsPC-1 cells).

human mesothelin [2] = target: T1, human mesothelin; test: cell-based or functional assay
human mesothelin [3] = target: T1, human mesothelin; test: cell-based or functional assay; remark: listed apart in the source
human CD3 = target: T2, human CD3 (human, UniProt P07766 23-207); test: flow cytometry on Jurkat cells, 3.8 pM-300 nM
T2 construct: also called CD3 epsilon
T2 sequence (P07766 23-207 limits assumed): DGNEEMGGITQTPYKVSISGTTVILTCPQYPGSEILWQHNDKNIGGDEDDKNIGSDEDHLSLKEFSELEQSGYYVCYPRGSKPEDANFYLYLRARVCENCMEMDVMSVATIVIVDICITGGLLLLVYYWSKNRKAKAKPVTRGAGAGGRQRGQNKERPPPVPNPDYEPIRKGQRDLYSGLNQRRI
Experimental: as §1, §2

T1 sequence (Q13421 296-588): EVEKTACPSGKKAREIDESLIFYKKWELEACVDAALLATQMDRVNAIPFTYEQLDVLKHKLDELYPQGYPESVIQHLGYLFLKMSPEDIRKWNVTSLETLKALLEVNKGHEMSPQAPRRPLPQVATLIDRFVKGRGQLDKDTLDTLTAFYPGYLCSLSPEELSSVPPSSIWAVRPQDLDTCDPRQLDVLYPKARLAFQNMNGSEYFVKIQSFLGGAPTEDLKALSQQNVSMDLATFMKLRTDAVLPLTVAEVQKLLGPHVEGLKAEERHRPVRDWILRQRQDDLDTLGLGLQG

B1: MSLN TCB molecule E: '1+1 IgG CrossFab, inverted' with charge modifications (bispecific antibody)
heavy: not shown
light 1: EVQLLESGGGLVQPGGSLRLSCAASGFTFSTYAMNWVRQAPGKGLEWVSRIRSKYNNYATYYADSVKGRFTISRDDSKNTLYLQMNSLRAEDTAVYYCVRHGNFGNSYVSWFAYWGQGTLVTVSSASVAAPSVFIFPPSDEQLKSGTASVVCLLNNFYPREAKVQWKVDNALQSGNSQESVTEQDSKDSTYSLSSTLTLSKADYEKHKVYACEVTHQGLSSPVTKSFNRGEC
light 2: DIQMTQSPSSLSASVGDRVTITCSASSSVSYMHWYQQKSGKAPKLLIYDTSKLASGVPSRFSGSGSGTDFTLTISSLQPEDFATYYCQQWSKHPLTFGQGTKLEIKRTVAAPSVFIFPPSDRKLKSGTASVVCLLNNFYPREAKVQWKVDNALQSGNSQESVTEQDSKDSTYSLSSTLTLSKADYEKHKVYACEVTHQGLSSPVTKSFNRGEC
chain: DKTHTCPPCPAPEAAGGPSVFLFPPKPKDTLMISRTPEVTCVVVDVSHEDPEVKFNWYVDGVEVHNAKTKPREEQYNSTYRVVSVLTVLHQDWLNGKEYKCKVSNKALGAPIEKTISKAKGQPREPQVCTLPPSRDELTKNQVSLSCAVKGFYPSDIAVEWESNGQPENNYKTTPPVLDSDGSFFLVSKLTVDKSRWQQGNVFSCSVMHEALHNHYTQKSLSLSP
Human mesothelin [1]
  EC50: 1.79 nM
Human mesothelin [2]
  EC50 of T-cell mediated lysis of AsPC-1 cells, 48 h (LDH release): 0.145 nM
  EC50 of T-cell mediated lysis of BxPC-3 cells, 48 h (LDH release): 0.115 nM
  EC50 of T-cell mediated lysis of NCI-H596 cells, 48 h (LDH release): 0.182 nM
Human mesothelin [3]
  EC50 of CD69 up-regulation on CD4 T cells (% CD4+CD69+), AsPC-1 target cells, 48 h (FACS): 0.167 nM
  EC50 of CD69 up-regulation on CD4 T cells (% CD4+CD69+), BxPC-3 target cells, 48 h (FACS): ~0.0939 nM
  EC50 of CD69 up-regulation on CD4 T cells (% CD4+CD69+), NCI-H596 target cells, 48 h (FACS): 0.0388 nM
  EC50 of CD69 up-regulation on CD8 T cells (% CD8+CD69+), AsPC-1 target cells, 48 h (FACS): 0.146 nM
  EC50 of CD69 up-regulation on CD8 T cells (% CD8+CD69+), BxPC-3 target cells, 48 h (FACS): ~0.0952 nM
  EC50 of CD69 up-regulation on CD8 T cells (% CD8+CD69+), NCI-H596 target cells, 48 h (FACS): 0.0609 nM

B2: MSLN TCB molecule F: '1+1 IgG CrossMab' with charge modifications (bispecific antibody)
heavy 1: QVQLVQSGAEVKKPGASVKVSCKASGYSFTGYTMNWVRQAPGQGLEWMGLITPYNGASSYNQKFRGKATMTVDTSTSTVYMELSSLRSEDTAVYYCARGGYDGRGFDYWGQGTLVTVSSASTKGPSVFPLAPSSKSTSGGTAALGCLVEDYFPEPVTVSWNSGALTSGVHTFPAVLQSSGLYSLSSVVTVPSSSLGTQTYICNVNHKPSNTKVDEKVEPKSCDKTHTCPPCPAPEAAGGPSVFLFPPKPKDTLMISRTPEVTCVVVDVSHEDPEVKFNWYVDGVEVHNAKTKPREEQYNSTYRVVSVLTVLHQDWLNGKEYKCKVSNKALGAPIEKTISKAKGQPREPQVCTLPPSRDELTKNQVSLSCAVKGFYPSDIAVEWESNGQPENNYKTTPPVLDSDGSFFLVSKLTVDKSRWQQGNVFSCSVMHEALHNHYTQKSLSLSP
heavy 2: not shown
light 1: EVQLLESGGGLVQPGGSLRLSCAASGFTFSTYAMNWVRQAPGKGLEWVSRIRSKYNNYATYYADSVKGRFTISRDDSKNTLYLQMNSLRAEDTAVYYCVRHGNFGNSYVSWFAYWGQGTLVTVSSASVAAPSVFIFPPSDEQLKSGTASVVCLLNNFYPREAKVQWKVDNALQSGNSQESVTEQDSKDSTYSLSSTLTLSKADYEKHKVYACEVTHQGLSSPVTKSFNRGEC
light 2: DIQMTQSPSSLSASVGDRVTITCSASSSVSYMHWYQQKSGKAPKLLIYDTSKLASGVPSRFSGSGSGTDFTLTISSLQPEDFATYYCQQWSKHPLTFGQGTKLEIKRTVAAPSVFIFPPSDRKLKSGTASVVCLLNNFYPREAKVQWKVDNALQSGNSQESVTEQDSKDSTYSLSSTLTLSKADYEKHKVYACEVTHQGLSSPVTKSFNRGEC
Human mesothelin [1]
  EC50: 4.59 nM
Human mesothelin [2]
  EC50 of T-cell mediated lysis of AsPC-1 cells, 48 h (LDH release): 0.37 nM
  EC50 of T-cell mediated lysis of NCI-H596 cells, 48 h (LDH release): 0.319 nM
Human CD3
  binding result: binds
Human mesothelin [3]
  EC50 of CD69 up-regulation on CD4 T cells (% CD4+CD69+), AsPC-1 target cells, 48 h (FACS): 0.299 nM
  EC50 of CD69 up-regulation on CD4 T cells (% CD4+CD69+), BxPC-3 target cells, 48 h (FACS): ~0.0958 nM
  EC50 of CD69 up-regulation on CD4 T cells (% CD4+CD69+), NCI-H596 target cells, 48 h (FACS): 0.0454 nM
  EC50 of CD69 up-regulation on CD8 T cells (% CD8+CD69+), AsPC-1 target cells, 48 h (FACS): 0.118 nM
  EC50 of CD69 up-regulation on CD8 T cells (% CD8+CD69+), BxPC-3 target cells, 48 h (FACS): 0.479 nM
  EC50 of CD69 up-regulation on CD8 T cells (% CD8+CD69+), NCI-H596 target cells, 48 h (FACS): 0.0532 nM

B3: MSLN TCB molecule C: '2+1 IgG CrossFab, inverted' without charge modifications (VH/VL exchange in CD3 binder) (bispecific antibody)
light: EVQLLESGGGLVQPGGSLRLSCAASGFTFSTYAMNWVRQAPGKGLEWVSRIRSKYNNYATYYADSVKGRFTISRDDSKNTLYLQMNSLRAEDTAVYYCVRHGNFGNSYVSWFAYWGQGTLVTVSSASVAAPSVFIFPPSDEQLKSGTASVVCLLNNFYPREAKVQWKVDNALQSGNSQESVTEQDSKDSTYSLSSTLTLSKADYEKHKVYACEVTHQGLSSPVTKSFNRGEC
chain 1: QVQLVQSGAEVKKPGASVKVSCKASGYSFTGYTMNWVRQAPGQGLEWMGLITPYNGASSYNQKFRGKATMTVDTSTSTVYMELSSLRSEDTAVYYCARGGYDGRGFDYWGQGTLVTVSSASTKGPSVFPLAPSSKSTSGGTAALGCLVKDYFPEPVTVSWNSGALTSGVHTFPAVLQSSGLYSLSSVVTVPSSSLGTQTYICNVNHKPSNTKVDKKVEPKSCDKTHTCPPCPAPEAAGGPSVFLFPPKPKDTLMISRTPEVTCVVVDVSHEDPEVKFNWYVDGVEVHNAKTKPREEQYNSTYRVVSVLTVLHQDWLNGKEYKCKVSNKALGAPIEKTISKAKGQPREPQVCTLPPSRDELTKNQVSLSCAVKGFYPSDIAVEWESNGQPENNYKTTPPVLDSDGSFFLVSKLTVDKSRWQQGNVFSCSVMHEALHNHYTQKSLSLSP
chain 2: not shown
chain 3: DIQMTQSPSSLSASVGDRVTITCSASSSVSYMHWYQQKSGKAPKLLIYDTSKLASGVPSRFSGSGSGTDFTLTISSLQPEDFATYYCQQWSKHPLTFGQGTKLEIKRTVAAPSVFIFPPSDEQLKSGTASVVCLLNNFYPREAKVQWKVDNALQSGNSQESVTEQDSKDSTYSLSSTLTLSKADYEKHKVYACEVTHQGLSSPVTKSFNRGEC
Human mesothelin [1]
  EC50: 0.828 nM
